Experimental data from paper PMC6051418.

Target: R28A-HD5 (human)
Test: crystal structure

R28A-HD5 (peptide)
stoichiometry N: 2
